# Experimental data: the supplement of paper PMC9112550, “Optimization of the antimicrobial peptide Bac7 by deep mutational scanning” (BMC Biology, 2022)
# System: Escherichia coli TOP10
# Assay: shrunken log2 fold change of peptide-encoding DNA abundance (4.5 h post-induction vs induction); higher = less antimicrobial activity (less host growth inhibition)
# Conditions: time post-induction: 4.5 h; library: site-saturation at positions 5, 18, 19, 20
# 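Also: peptides expressed intracellularly from a pBAD plasmid library in pooled LB shake-flask culture, induced with 0.3% L-arabinose, DNA abundance read by NGS, three biological replicates, DESeq2 with apeglm shrinkage.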
row,Sequence,shrunken log2 fold change
1,RRIRRRPPRLPRPRPRPDMPPRP,-0.0169
2,RRIRRRPPRLPRPRPRPDNPPRP,-0.582
3,RRIRRRPPRLPRPRPRPDNRPRP,0.0484
4,RRIRRRPPRLPRPRPRPDPPPRP,0.443
5,RRIRRRPPRLPRPRPRPDPTPRP,0.77
6,RRIRRRPPRLPRPRPRPDPYPRP,0.175
7,RRIRRRPPRLPRPRPRPDTAPRP,-0.0709
8,RRIRRRPPRLPRPRPRPDVMPRP,0.195
9,RRIRRRPPRLPRPRPRPDYEPRP,-0.115
10,RRIRRRPPRLPRPRPRPEAHPRP,0.171
11,RRIRRRPPRLPRPRPRPEAIPRP,0.445
12,RRIRRRPPRLPRPRPRPEAQPRP,0.253
13,RRIRRRPPRLPRPRPRPEDFPRP,0.117
14,RRIRRRPPRLPRPRPRPEETPRP,0.244
15,RRIRRRPPRLPRPRPRPEFLPRP,0.441
16,RRIRRRPPRLPRPRPRPEGWPRP,3.17
17,RRIRRRPPRLPRPRPRPEHEPRP,0.0952
18,RRIRRRPPRLPRPRPRPEHQPRP,0.25
19,RRIRRRPPRLPRPRPRPEITPRP,0.0455
20,RRIRRRPPRLPRPRPRPEKGPRP,-0.0235

row,Sequence,shrunken log2 fold change
1,RRIRRRPPRLPRPRPRPEKIPRP,0.164
2,RRIRRRPPRLPRPRPRPEMYPRP,0.0119
3,RRIRRRPPRLPRPRPRPENLPRP,0.0548
4,RRIRRRPPRLPRPRPRPENRPRP,0.0232
5,RRIRRRPPRLPRPRPRPEPDPRP,0.879
6,RRIRRRPPRLPRPRPRPEQNPRP,0.849
7,RRIRRRPPRLPRPRPRPERFPRP,0.293
8,RRIRRRPPRLPRPRPRPERIPRP,0.0278
9,RRIRRRPPRLPRPRPRPERQPRP,0.522
10,RRIRRRPPRLPRPRPRPERSPRP,0.0187
11,RRIRRRPPRLPRPRPRPESLPRP,0.0493
12,RRIRRRPPRLPRPRPRPETDPRP,-0.00744
13,RRIRRRPPRLPRPRPRPETEPRP,0.783
14,RRIRRRPPRLPRPRPRPETIPRP,0.175
15,RRIRRRPPRLPRPRPRPETNPRP,0.596
16,RRIRRRPPRLPRPRPRPEWVPRP,0.344
17,RRIRRRPPRLPRPRPRPEYAPRP,0.0407
18,RRIRRRPPRLPRPRPRPEYSPRP,-0.265
19,RRIRRRPPRLPRPRPRPEYYPRP,-0.324
20,RRIRRRPPRLPRPRPRPFANPRP,0.00652

row,Sequence,shrunken log2 fold change
1,RRIRRRPPRLPRPRPRPFASPRP,-0.0314
2,RRIRRRPPRLPRPRPRPFENPRP,0.0967
3,RRIRRRPPRLPRPRPRPFFNPRP,-0.0577
4,RRIRRRPPRLPRPRPRPFHEPRP,-0.195
5,RRIRRRPPRLPRPRPRPFHSPRP,0.00922
6,RRIRRRPPRLPRPRPRPFIPPRP,-0.506
7,RRIRRRPPRLPRPRPRPFKMPRP,-0.124
8,RRIRRRPPRLPRPRPRPFLRPRP,0.382
9,RRIRRRPPRLPRPRPRPFPDPRP,0.255
10,RRIRRRPPRLPRPRPRPFPMPRP,0.0657
11,RRIRRRPPRLPRPRPRPFQLPRP,0.0918
12,RRIRRRPPRLPRPRPRPFSFPRP,-0.0665
13,RRIRRRPPRLPRPRPRPFWAPRP,0.0811
14,RRIRRRPPRLPRPRPRPFWMPRP,0.0323
15,RRIRRRPPRLPRPRPRPFWNPRP,0.0866
16,RRIRRRPPRLPRPRPRPFWWPRP,0.528
17,RRIRRRPPRLPRPRPRPFYNPRP,-0.139
18,RRIRRRPPRLPRPRPRPGALPRP,0.502
19,RRIRRRPPRLPRPRPRPGAWPRP,-9.3e-05
20,RRIRRRPPRLPRPRPRPGCAPRP,0.73
